Test [1] deals with T1, P. furiosus proliferating cell nuclear antigen (PCNA) (Pyrococcus furiosus), O73947.
T1 chain: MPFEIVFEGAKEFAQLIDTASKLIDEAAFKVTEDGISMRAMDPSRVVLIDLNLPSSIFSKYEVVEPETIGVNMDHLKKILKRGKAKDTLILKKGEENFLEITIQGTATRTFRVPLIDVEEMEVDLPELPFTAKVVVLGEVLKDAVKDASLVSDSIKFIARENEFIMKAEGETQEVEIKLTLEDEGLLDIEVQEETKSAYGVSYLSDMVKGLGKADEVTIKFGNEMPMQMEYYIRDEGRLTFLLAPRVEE
Nature of the test: negative-stain electron microscopy, single particle analysis; FEN (D175A), PCNA and double flap DNA (Substrate-A) mixed in 50 mM Tris-HCl pH 8.0, 50 mM NaCl, 37 °C 10 min; complex isolated on Superdex 200 without crosslinking; 2% uranyl acetate stain; map at 19 Å with crystal structures fitted. The conditions noted are these: remark: other sources report otherwise.

The target of test [2] is T2, P. furiosus DNA ligase (Lig) (Pyrococcus furiosus, UniProt P56709 1-561).
T2 construct: DNA ligase (Lig) of Pyrococcus furiosus, with DBD, AdD and OBD domains and the PIP-box motif 103-QKSFF-107
T2 sequence: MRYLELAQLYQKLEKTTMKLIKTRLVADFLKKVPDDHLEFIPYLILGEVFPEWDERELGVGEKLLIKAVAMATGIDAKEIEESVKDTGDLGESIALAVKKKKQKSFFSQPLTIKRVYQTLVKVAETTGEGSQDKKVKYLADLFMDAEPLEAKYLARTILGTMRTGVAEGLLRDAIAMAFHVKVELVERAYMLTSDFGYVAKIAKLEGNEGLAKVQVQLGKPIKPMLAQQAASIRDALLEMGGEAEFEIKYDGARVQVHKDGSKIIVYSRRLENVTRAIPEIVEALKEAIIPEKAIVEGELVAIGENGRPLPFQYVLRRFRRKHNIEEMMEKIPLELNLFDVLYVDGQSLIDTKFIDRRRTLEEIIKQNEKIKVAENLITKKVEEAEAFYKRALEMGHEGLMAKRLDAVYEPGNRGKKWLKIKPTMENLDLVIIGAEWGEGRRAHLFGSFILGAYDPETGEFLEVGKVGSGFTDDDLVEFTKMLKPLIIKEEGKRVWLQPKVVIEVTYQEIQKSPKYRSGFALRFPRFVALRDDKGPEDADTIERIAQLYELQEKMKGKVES
Put plainly: negative-stain electron microscopy, single particle analysis; wild type FEN, Lig, PCNA and nonligatable nicked DNA (Substrate-B) mixed in 20 mM MES pH 6.5, 50 mM NaCl, 0.1 mM ATP, 5 mM MgCl2, 50 °C 10 min; complex isolated on Superdex 200 without crosslinking; 2% uranyl acetate stain; two classes, maps at 16 Å and 20 Å with crystal structures fitted. The conditions noted are these: both partners purified.

B1: P. furiosus proliferating cell nuclear antigen (PCNA) (natural protein, Pyrococcus furiosus)
chain: T1 chain
notes: proliferating cell nuclear antigen (PCNA) of Pyrococcus furiosus, forms a homotrimeric ring; also called PCNA clamp; PCNA ring
On to B1, for which, in test [1], the stoichiometry N (as a rule, a count of units in the complex or per binding partner) came out at 3. The binding result in test [2] is recorded as “binds”.

The values are drawn from paper PMC6212441, “Direct visualization of DNA baton pass between replication factors bound to PCNA” (Scientific Reports, 2018).
